By Kd is commonly meant the concentration at which binding is half-saturated. Broadly, the koff is the rate constant with which the complex falls apart. What is called kon is a measure of how fast the partners come together.

Assay [1] has as its target T1, human MSP R/Ron (R&D systems, 1947-MS-050) (human, UniProt Q04912 25-571, limits assumed). In words: indirect ELISA, hu8C4 at 0.010 nM. The method, then: (§1) Each antigen was diluted in 0.05 M carbonate-bicarbonate (Sigma, C3041) buffer at a concentration of 1 μg/ml, after which the resulting antigen was added into each well of a 96-well plate (Corning, #2592), such that the resulting plate was coated at 4° C. overnight. The plate was washed once with TBS-T, after which TBS-T containing 4%—skim milk was added by 200 μl into each well of the resulting plate in order to inhibit a non-specific binding, such that the resulting plate was reacted at 37° C. for 1 hour. Then, the plate was washed once with TBS-T buffer, after which a primary antibody was sequentially diluted in TBS-T buffer containing 2%—skim milk from a highest concentration of 30 nM to 0.002 nM, such that the resulting antibody was added by 100 μk into each well, thus being reacted at 37° C. for 2 hours. After being washed three times with TBS-T buffer, an anti-human kappa light chains-peroxidase (Sigma, A7164) was diluted at a ratio of 1:5000 as a secondary antibody, after which the resulting antibody was added by 100 μl into each well, thus being reacted at 37° C. for 1 hour. Then, after being washed three times with TBS-T buffer, TMB solution (Sigma, T4444) was added by 100 μl into each well to carry out an color developing reaction, after which 2 N […] solution was added by 50 μl into each well to stop the reaction. An optical density was measured based on a value at a wavelength of 450 nm by using a microplate reader and a reference wavelength of 570 nm was used.
(In general: In an ELISA, binding on a coated surface is turned into a signal by an enzyme label.)

Assay [2] has as its target T2, human VEGF R2 Fc chimera (R&D systems, 357-KD_CF) (human, UniProt P35968 20-764).
T2 construct: also called VEGFR R2
Put plainly: indirect ELISA, hu8C4 at 0.010 nM. The protocol: as §1

Assay [3] addresses T3, human IGF-I R (R&D systems, 391-GR-050) (human, UniProt P08069 31-932). In words: indirect ELISA, hu8C4 at 1.200 nM. The protocol:
as §1

Assay [4] deals with T1, human MSP R/Ron (R&D systems, …). Put plainly: indirect ELISA, hu8C4 at 1.200 nM. The method, then: as §1
For assay [5], the target named is T4, human PDGF Rβ Fc chimera (R&D systems, 385-PR_CF) (human, UniProt P09619 33-530). In words: indirect ELISA, hu8C4 at 1.200 nM. The protocol: as §1
T4 sequence (P09619 33-530, change not shown): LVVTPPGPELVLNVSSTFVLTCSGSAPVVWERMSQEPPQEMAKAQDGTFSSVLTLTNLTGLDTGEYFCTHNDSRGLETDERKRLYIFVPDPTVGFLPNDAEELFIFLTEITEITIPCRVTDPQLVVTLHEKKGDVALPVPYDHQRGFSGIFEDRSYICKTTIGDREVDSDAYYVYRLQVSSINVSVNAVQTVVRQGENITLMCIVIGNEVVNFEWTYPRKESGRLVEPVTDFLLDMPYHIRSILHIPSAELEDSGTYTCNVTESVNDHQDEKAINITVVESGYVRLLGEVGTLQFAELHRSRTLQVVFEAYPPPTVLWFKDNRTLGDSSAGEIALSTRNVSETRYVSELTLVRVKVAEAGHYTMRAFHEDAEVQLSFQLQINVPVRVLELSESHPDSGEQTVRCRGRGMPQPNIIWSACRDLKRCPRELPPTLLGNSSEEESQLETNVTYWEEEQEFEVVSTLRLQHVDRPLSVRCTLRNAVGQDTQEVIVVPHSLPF
Assay [6] addresses T2, human VEGF R2 Fc chimera (R&D systems, …). In words: indirect ELISA, hu8C4 at 1.200 nM. The method, then: as §1
In assay [7] the target is T3, human IGF-I R (R&D systems, 391-GR-050). Put plainly: indirect ELISA, hu8C4 at 6.000 nM. The protocol: as §1
The target in assay [8] is T1, human MSP R/Ron (R&D systems, …). Put plainly: indirect ELISA, hu8C4 at 6.000 nM. The method, then: as §1
Assay [9] addresses T4, human PDGF Rβ Fc chimera (R&D systems, …). In words: indirect ELISA, hu8C4 at 6.000 nM. The method, then: as §1
Assay [10] has as its target T2, human VEGF R2 Fc chimera (R&D systems, …). In words: indirect ELISA, hu8C4 at 6.000 nM. The protocol:
as §1

In assay [11] the target is T5, human c-Met ECD (ACROBiosystems, MET-H5227) (human, UniProt P08581 25-932).
T5 construct: extracellular domain; Bought protein
T5 sequence (P08581 25-932): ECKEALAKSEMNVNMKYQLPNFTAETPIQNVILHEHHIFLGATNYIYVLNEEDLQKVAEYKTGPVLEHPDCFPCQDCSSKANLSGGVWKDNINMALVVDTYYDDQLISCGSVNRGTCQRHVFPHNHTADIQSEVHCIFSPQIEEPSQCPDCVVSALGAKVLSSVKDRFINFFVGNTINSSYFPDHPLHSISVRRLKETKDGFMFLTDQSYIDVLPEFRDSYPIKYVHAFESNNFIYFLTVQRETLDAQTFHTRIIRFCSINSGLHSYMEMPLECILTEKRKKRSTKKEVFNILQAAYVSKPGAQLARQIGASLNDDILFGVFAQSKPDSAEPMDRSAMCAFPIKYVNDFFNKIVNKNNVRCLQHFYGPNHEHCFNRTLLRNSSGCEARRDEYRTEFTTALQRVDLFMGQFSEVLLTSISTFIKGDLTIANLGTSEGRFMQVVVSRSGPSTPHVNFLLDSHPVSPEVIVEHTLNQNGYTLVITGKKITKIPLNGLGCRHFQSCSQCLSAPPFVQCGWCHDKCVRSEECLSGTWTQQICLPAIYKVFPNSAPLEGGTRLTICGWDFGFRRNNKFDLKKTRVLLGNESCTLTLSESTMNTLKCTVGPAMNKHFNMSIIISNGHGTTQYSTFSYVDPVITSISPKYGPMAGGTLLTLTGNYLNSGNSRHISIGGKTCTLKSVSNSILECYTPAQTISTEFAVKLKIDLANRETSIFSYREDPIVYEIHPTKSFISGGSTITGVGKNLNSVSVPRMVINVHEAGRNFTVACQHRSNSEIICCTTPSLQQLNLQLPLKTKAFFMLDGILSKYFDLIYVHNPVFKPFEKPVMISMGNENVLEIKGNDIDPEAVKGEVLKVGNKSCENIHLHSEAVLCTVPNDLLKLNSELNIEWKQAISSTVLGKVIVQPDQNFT
In words: SPR (BIAcore), antibody captured by anti-human IgG Fc, antigen as analyte, 1:1 Langmuir. The method, then: (§2) The antibodies were diluted in HBS-EP buffer (0.01 M HEPES pH 7.4, 0.15 M NaCl, 3 mM EDTA and 0.005% (v/v) Surfactant P20) at a concentration of 1-2 μg/ml, after which the resulting antibodies were injected into a CM5 chip with an anti-human Ig Fc fixed thereto at a flow rate of 30 μl/min for 10-120 seconds, and then captured in a range of 150-200 RU. Each antigen was used after being diluted at 10, 5, 2.5, 1.25, 0.625, 0.3125 and 0.15625 nM, after which the resulting antigens were sequentially injected from a lower concentration. Then, the resulting antigens were injected at a flow rate of 30 μl/min for 5 minutes to carry out binding, after which a running buffer was injected thereinto for 10-15 minutes to carry out a dissociation. 15 μl of 10 mM Glycine-HCl (pH 1.5) was used to revive the chip.
A general note: SPR reads the build-up and loss of mass on a sensor chip optically.

Assay [12] addresses T6, cynomolgus monkey c-Met ECD (SiNo. Biological, 90304-CO8H) (cynomolgus monkey, UniProt A0A2K5UM36 25-932).
T6 construct: not shown: The vendor's tag
The assay is described as above. The method, then: as §2

The target of assay [13] is T7, mouse c-Met (SiNo. Biological Inc, 50622-M08H) (mouse, UniProt P16056 25-931).
T7 construct: extracellular domain
T7 sequence (P16056 25-931, stated change not applied): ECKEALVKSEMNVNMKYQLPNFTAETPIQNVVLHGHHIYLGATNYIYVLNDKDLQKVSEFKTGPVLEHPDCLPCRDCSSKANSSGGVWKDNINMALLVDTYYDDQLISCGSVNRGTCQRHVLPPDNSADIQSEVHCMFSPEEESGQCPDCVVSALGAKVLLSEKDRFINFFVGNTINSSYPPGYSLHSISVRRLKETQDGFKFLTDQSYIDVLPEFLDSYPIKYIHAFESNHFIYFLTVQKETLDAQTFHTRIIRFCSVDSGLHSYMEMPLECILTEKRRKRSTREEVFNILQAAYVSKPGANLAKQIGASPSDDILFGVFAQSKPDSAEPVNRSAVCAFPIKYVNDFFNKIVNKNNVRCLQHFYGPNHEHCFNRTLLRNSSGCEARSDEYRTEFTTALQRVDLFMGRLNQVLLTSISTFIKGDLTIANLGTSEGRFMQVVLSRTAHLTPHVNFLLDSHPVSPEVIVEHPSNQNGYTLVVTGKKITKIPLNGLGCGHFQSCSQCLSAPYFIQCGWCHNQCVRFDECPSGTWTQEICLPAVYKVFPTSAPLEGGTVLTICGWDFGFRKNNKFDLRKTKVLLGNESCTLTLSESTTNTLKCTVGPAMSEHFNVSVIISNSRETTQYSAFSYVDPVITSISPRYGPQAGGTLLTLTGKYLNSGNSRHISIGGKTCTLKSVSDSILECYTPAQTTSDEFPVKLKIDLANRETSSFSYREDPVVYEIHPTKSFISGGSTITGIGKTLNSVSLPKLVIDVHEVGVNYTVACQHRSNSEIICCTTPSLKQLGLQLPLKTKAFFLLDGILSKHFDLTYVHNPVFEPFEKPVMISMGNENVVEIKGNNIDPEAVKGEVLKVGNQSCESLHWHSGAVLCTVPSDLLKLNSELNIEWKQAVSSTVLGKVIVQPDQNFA
Put plainly: ELISA, antigen coated at 2 µg/ml, antibody 6.4 pM to 100 nM, anti-human IgG F(ab')2-HRP, TMB, O.D. at 450 nm [panel Mouse cMet]. The protocol: Particularly, mouse c-Met (SiNo. Biological Inc, 50622-M08H), cynomolgus monkey c-Met (SiNo. Biological Inc, 90304-CO8H), human c-Met (R&D Systems, 358-MT), mouse EGFR (SiNo. Biological Inc, 51091-M08H), cynomolgus monkey EGFR (SiNo. Biological, 90285-008B) and human EGFR (Abcam, 155639) antigens were all divided into a 96-well plate at a concentration of 2 μg/ml, after which the resulting plate was reacted at 4° C. overnight.
Color development was made by using TMB (Sigma, T4444) solution, wherein its value was measured at an optical density of 450 nm and its ELISA results are shown in FIG. 9.

T2 sequence (P35968 20-764, change not shown): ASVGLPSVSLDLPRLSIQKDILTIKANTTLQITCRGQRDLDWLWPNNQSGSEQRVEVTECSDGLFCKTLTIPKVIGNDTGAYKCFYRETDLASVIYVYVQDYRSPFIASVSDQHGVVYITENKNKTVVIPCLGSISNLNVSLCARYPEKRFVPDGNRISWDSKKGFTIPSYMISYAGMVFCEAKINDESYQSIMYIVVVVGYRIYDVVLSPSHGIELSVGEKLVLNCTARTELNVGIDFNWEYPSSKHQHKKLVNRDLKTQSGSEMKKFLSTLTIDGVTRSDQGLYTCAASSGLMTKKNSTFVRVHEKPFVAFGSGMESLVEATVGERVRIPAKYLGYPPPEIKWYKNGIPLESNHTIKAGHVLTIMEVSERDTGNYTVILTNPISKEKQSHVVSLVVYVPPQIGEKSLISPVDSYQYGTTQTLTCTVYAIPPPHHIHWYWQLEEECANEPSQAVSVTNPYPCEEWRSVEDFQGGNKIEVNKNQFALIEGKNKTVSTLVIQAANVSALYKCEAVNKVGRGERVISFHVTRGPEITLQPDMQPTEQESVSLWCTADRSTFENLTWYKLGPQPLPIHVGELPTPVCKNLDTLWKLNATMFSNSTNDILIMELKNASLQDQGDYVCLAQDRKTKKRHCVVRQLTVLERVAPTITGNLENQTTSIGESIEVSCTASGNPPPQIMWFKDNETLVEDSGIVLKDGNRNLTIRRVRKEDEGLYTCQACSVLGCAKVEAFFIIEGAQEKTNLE
T6 sequence (A0A2K5UM36 entry or part of it limits assumed): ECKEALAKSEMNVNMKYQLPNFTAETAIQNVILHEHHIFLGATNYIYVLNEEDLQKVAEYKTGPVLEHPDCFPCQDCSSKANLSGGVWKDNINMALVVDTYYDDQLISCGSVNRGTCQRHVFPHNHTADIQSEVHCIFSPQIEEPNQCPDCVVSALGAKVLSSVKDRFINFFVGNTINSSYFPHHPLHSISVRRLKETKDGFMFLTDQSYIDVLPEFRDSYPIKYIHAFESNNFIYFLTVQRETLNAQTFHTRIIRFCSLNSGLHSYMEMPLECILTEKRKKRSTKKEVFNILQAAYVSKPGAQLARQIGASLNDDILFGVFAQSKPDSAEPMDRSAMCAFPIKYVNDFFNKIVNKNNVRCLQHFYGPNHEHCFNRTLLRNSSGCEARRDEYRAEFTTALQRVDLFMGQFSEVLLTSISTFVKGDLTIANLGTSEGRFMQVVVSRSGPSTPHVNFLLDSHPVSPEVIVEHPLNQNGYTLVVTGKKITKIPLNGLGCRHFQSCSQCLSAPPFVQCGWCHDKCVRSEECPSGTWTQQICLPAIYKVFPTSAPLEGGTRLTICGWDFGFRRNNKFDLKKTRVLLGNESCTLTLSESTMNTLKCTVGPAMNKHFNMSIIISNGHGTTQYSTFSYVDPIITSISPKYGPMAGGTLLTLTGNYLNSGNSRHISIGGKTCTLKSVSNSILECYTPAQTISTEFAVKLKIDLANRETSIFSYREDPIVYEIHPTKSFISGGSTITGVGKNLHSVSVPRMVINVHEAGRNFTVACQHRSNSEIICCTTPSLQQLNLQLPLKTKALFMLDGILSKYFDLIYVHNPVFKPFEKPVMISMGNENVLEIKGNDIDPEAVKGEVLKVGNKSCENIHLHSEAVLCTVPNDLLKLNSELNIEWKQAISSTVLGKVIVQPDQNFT

B1: hu8C4 (IgG1 humanized antibody having a hinge region of SEQ ID NO: 38 in hu8C4-1) (antibody, V domains shown)
VH: EVQLVESGGGLVQPGGSLRLSCAASGYTFSDYYINWVRQAPGKGLEWIGEIFPGSGNTHFSARFKGRATLSADKSKNTAYLQMNSLRAEDTAVYYCAGGDYGFLYWGQGTLVTVSS
VL: DIQMTQSPSSLSASVGDRVTITCGASENIYGALNWYQQKPGKAPKLLIYGATNLADGVPSRFSGSGSGRDFTFTISSLQPEDIATYYCQNVLSSPYTFGQGTKVEIK
notes: light chain detected with anti-human kappa; also called anti-c-Met antibody hu8C4; hu8C4 monospecific antibody
On to B1, for which the “A450 nm-A570 nm” value is 0 A450 nm-A570 nm in assay [1]; -0.01 A450 nm-A570 nm in assay [2]; 0 A450 nm-A570 nm in assay [3]; 0 A450 nm-A570 nm in assay [4]; -0.01 A450 nm-A570 nm in assay [5]; -0.01 A450 nm-A570 nm in assay [6]. The “A450 nm-A570 nm” value in assay [7] is 0 A450 nm-A570 nm; in [8], 0 A450 nm-A570 nm; in assay [9], -0.01 A450 nm-A570 nm; in assay [10], -0.01 A450 nm-A570 nm. Also, the Kd stood at 0.317 nM in assay [11] and 0.462 nM in assay [12]. For the same molecule, the koff in assay [11] worked out at 0.000215 s⁻¹; in assay [12], 0.000345 s⁻¹. Further, the kon in assay [11] was determined as 677000 M⁻¹ s⁻¹; in assay [12], 747000 M⁻¹ s⁻¹. Besides, the binding result in assay [13] is given as “no binding (tested: 100 nM)”.

The values are drawn from patent US20200231681A1 (CHONG KUN DANG PHARMACEUTICAL, published 2020).
